This note sets out measurements from patent US20150147274A1 (CANCER RESEARCH TECHNOLOGY, published 2015).

Changes are numbered by the printed parent chain.

This assay has as its target T1, MET928 (cMET protein derived from construct 25-928) (human, UniProt P08581 25-928).
T1 construct: MET ectodomain, residues 1-24 are the leader; produced in Lec 8 cells; background text says the ectodomain is furin-cleaved into alpha (25-307) and beta chains; biotinylated form used in selections; also called MET928 extracellular domain; Met extracellular domain
Kind of assay: ELISA, soluble scFv.

T1 sequence (P08581 25-928): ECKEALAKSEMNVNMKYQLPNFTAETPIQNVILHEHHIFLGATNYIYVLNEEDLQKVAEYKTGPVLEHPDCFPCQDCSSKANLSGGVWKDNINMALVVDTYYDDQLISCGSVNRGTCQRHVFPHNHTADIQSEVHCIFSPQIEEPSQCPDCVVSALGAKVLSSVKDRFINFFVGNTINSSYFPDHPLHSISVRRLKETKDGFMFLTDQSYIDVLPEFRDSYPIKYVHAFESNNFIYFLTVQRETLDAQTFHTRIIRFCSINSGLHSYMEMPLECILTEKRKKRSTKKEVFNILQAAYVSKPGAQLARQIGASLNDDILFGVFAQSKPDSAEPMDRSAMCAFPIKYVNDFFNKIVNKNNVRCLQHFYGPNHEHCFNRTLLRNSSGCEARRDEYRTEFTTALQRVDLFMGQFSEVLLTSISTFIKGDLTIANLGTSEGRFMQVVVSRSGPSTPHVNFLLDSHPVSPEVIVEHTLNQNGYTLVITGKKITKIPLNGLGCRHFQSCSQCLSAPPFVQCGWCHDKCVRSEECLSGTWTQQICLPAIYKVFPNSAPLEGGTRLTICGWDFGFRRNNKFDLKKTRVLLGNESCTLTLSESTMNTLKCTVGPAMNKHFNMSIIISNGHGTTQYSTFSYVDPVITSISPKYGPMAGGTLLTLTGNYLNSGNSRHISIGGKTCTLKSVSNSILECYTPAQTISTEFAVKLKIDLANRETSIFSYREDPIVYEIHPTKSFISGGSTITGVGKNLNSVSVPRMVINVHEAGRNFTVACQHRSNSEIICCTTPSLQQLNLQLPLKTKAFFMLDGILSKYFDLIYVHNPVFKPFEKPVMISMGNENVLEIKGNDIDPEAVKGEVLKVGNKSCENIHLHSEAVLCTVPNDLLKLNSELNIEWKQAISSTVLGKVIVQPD

B1: 108_D12 (scFv)
scFv: QMQLVQSGAEVKKPGAPVKVSCKVSGYTFTDYYMHWVQQAPGKGLEWMGLVDPEDGETIYAEKFQGRVTITADTSTDTAYMELSSLRSEDTAVYYCATDATTPYWTPYVWGQGTLVTVSSLEGGGGSGGGGSGGGASDIQMTQSPSSLSASVGDRVTITCQASQDISNYLNWYQQKPGRAPKVLIYDASNLETGVPSRFSGSGSGTEFTLTISNLRPDDFATYYCQQGDSFPLTFGGGTKVEIK
notes: not shown: 6xHis/tri-FLAG tags
B1: the binding result is “binds”.

B2: 110_A5 (scFv)
scFv: B1 scFv with T106Y, Y108F
notes: as for B1
Regarding B2, the binding result is “binds”.

B3: 109_H11 (scFv)
scFv: B1 scFv with T106G, P107M, Y108A, V109Q
notes: as for B1
As for B3, the binding result is recorded as “binds”.

B4: 111_D4 (scFv)
scFv: B1 scFv with T106G, P107M, Y108W
notes: as for B1
In the case of B4, the binding result is “binds”.

B5: 109_H7 (scFv)
scFv: B1 scFv with T106F, Y108R, V109W
notes: as for B1
Turning to B5, the binding result is given as “binds”.

B6: 108_E11 (scFv)
scFv: B1 scFv with W105C, T106S, P107R, Y108T, V109S
notes: as for B1
Consider B6, for which the binding result is “binds”.

B7: 110_B3 (scFv)
scFv: B1 scFv with A100M, T101E, T102L, P103N, W105Y, T106G, P107M, Y108D
notes: as for B1
Regarding B7, the binding result is given as “binds”.

B8: 111_C12 (scFv)
scFv: B1 scFv with T106F, Y108R, V109Y
notes: as for B1
For the molecule B8, the binding result is “binds”.

B9: 108_F3 (scFv)
scFv: B1 scFv with T106G, P107M, Y108A, V109K
notes: as for B1
Regarding B9, the binding result is listed as “binds”.

B10: 109 H2 (scFv)
scFv: B1 scFv with T106G, P107M, Y108W, V109E
notes: as for B1
Regarding B10, the binding result was “binds”.

B11: 108_G5 (scFv)
scFv: B1 scFv with T106W, P107M, Y108Q, V109S
notes: as for B1
Consider B11, for which the binding result is on record as “binds”.

B12: 108_G3 (scFv)
scFv: B1 scFv with T106A, Y108W, V109R
notes: as for B1
Turning to B12, the binding result is “binds”.

B13: 110_A9 (scFv)
scFv: B1 scFv with T106G, P107M, Y108A, V109G
notes: as for B1
For the molecule B13, the binding result is on record as “binds”.

B14: 108_E12 (scFv)
scFv: B1 scFv with T106L, P107A, Y108A, V109E
notes: as for B1
For the molecule B14, the binding result is recorded as “binds”.

B15: 111_C6 (scFv)
scFv: B1 scFv with T106F, Y108Q, V109H
notes: as for B1
Regarding B15, the binding result is listed as “binds”.

B16: 108_G1 (scFv)
scFv: B1 scFv with T106F, Y108R, V109M
notes: as for B1
In the case of B16, the binding result was “binds”.

B17: 111_C8 (scFv)
scFv: B1 scFv with T106F, Y108V
notes: as for B1
On to B17, for which the binding result is recorded as “binds”.

B18: 110_A8 (scFv)
scFv: B1 scFv with T106C, P107M, Y108A, V109I
notes: as for B1
Consider B18, for which the binding result is listed as “binds”.

B19: 109_G10 (scFv)
scFv: B1 scFv with T106F, Y108R
notes: as for B1
For B19, the binding result is reported as “binds”.

B20: 108_E10 (scFv)
scFv: B1 scFv with T106F, Y108W
notes: as for B1
For the molecule B20, the binding result is reported as “binds”.

B21: 108_E4 (scFv)
scFv: B1 scFv with T106G, P107M, Y108I, V109W
notes: as for B1
B21: the binding result is reported as “binds”.

B22: 109_G11 (scFv)
scFv: B1 scFv with T106W, P107T, Y108A, V109N
notes: as for B1
Take B22: the binding result was “binds”.

B23: 108_F2 (scFv)
scFv: B1 scFv with T106G, P107M, Y108S, V109S
notes: as for B1
As for B23, the binding result is “binds”.

B24: 111_D1 (scFv)
scFv: B1 scFv with T106G, P107M, Y108D, V109E
notes: as for B1
Regarding B24, the binding result is listed as “binds”.

B25: 108_E7 (scFv)
scFv: B1 scFv with T106G, P107M, Y108W, V109R
notes: as for B1
On to B25, for which the binding result is given as “binds”.

B26: 111_D2 (scFv)
scFv: B1 scFv with T106F, Y108W, V109I
notes: as for B1
Consider B26, for which the binding result was “binds”.

B27: 110_B9 (scFv)
scFv: B1 scFv with T106S, Y108I, V109W
notes: as for B1
Regarding B27, the binding result is recorded as “binds”.

B28: 111_C9 (scFv)
scFv: B1 scFv with T106G, P107M, Y108M, V109A
notes: as for B1
As to B28, the binding result is “binds”.

B29: 108_E8 (scFv)
scFv: B1 scFv with T106W, P107M, Y108Q, V109K
notes: as for B1
On to B29, for which the binding result is “binds”.

B30: 109_G8 (scFv)
scFv: B1 scFv with T106G, P107M, Y108A, V109T
notes: as for B1
Consider B30, for which the binding result is on record as “binds”.

B31: 108_E1 (scFv)
scFv: B1 scFv with T106F, Y108L
notes: as for B1
In the case of B31, the binding result was “binds”.

B32: 109_H1 (scFv)
scFv: B1 scFv with T106G, P107V, Y108Q, V109K
notes: as for B1
On to B32, for which the binding result was “binds”.

B33: 109_H6 (scFv)
scFv: B1 scFv with T106F, Y108R, V109T
notes: as for B1
With B33, the binding result is reported as “binds”.

B34: 108_F11 (scFv)
scFv: B1 scFv with A100G, T101S, T102N, P103L, Y104S, T106Q, P107M, Y108D
notes: as for B1
For the molecule B34, the binding result was “binds”.

B35: 111_C1 (scFv)
scFv: B1 scFv with T106S, Y108W, V109A
notes: as for B1
With B35, the binding result was “binds”.

B36: 108_F6 (scFv)
scFv: B1 scFv with W105C, T106C, P107T, Y108I, V109E
notes: as for B1
On to B36, for which the binding result was “binds”.

B37: 109_H9 (scFv)
scFv: B1 scFv with T106G, P107M, Y108T, V109K
notes: as for B1
For the molecule B37, the binding result is recorded as “binds”.

B38: 111_C3 (scFv)
scFv: B1 scFv with T106G, P107M, Y108Q, V109G
notes: as for B1
Consider B38, for which the binding result is “binds”.

B39: 110_B6 (scFv)
scFv: B1 scFv with A100T, T101D, T102L, P103K, W105Y, T106G, P107M, Y108D
notes: as for B1
As for B39, the binding result is recorded as “binds”.

B40: 109_H8 (scFv)
scFv: B1 scFv with T106F, Y108R, V109S
notes: as for B1
With B40, the binding result is “binds”.

B41: 109_H5 (scFv)
scFv: B1 scFv with T106G, P107A, Y108Q, V109E
notes: as for B1
For B41, the binding result is listed as “binds”.

B42: 111_B12 (scFv)
scFv: B1 scFv with T106G, P107A, Y108Q, V109A
notes: as for B1
Take B42: the binding result is “binds”.

B43: 111_D3 (scFv)
scFv: B1 scFv with T106G, P107A, Y108A, V109L
notes: as for B1
With B43, the binding result was “binds”.

B44: 109_H3 (scFv)
scFv: B1 scFv with T106G, P107M, Y108Q, V109Q
notes: as for B1
As to B44, the binding result is “binds”.

B45: 110_B8 (scFv)
scFv: B1 scFv with T106G, P107M, Y108M, V109L
notes: as for B1
Turning to B45, the binding result was “binds”.

B46: 110_B5 (scFv)
scFv: B1 scFv with T106G, P107M, Y108M, V109S
notes: as for B1
In the case of B46, the binding result is listed as “binds”.

B47: 108_E5 (scFv)
scFv: B1 scFv with T106G, P107M, Y108W, V109I
notes: as for B1
As for B47, the binding result is recorded as “binds”.

B48: 108_G6 (scFv)
scFv: B1 scFv with T106F, Y108V, V109W
notes: as for B1
Take B48: the binding result is listed as “binds”.

B49: 110_B7 (scFv)
scFv: B1 scFv with A100G, T101L, T102W, P103M, W105Y, T106G, P107M, Y108D
notes: as for B1
In the case of B49, the binding result is listed as “binds”.

B50: 111_C5 (scFv)
scFv: B1 scFv with T106F, Y108K
notes: as for B1
On to B50, for which the binding result was “binds”.

B51: 111_C10 (scFv)
scFv: B1 scFv with Y108E, V109I
notes: as for B1
For B51, the binding result is on record as “binds”.

B52: 109_G12 (scFv)
scFv: B1 scFv with T106G, P107M, Y108A, V109A
notes: as for B1
B52: the binding result was “binds”.

B53: 110_A3 (scFv)
scFv: B1 scFv with T106G, P107V, Y108Q
notes: as for B1
Consider B53, for which the binding result is “binds”.

B54: 110_A2 (scFv)
scFv: B1 scFv with T106G, P107M, Y108S, V109T
notes: as for B1
B54: the binding result is reported as “binds”.
